The supplement of paper PMC10126150
± gives the standard deviation of the averaged measurements.

Tested on: ATP
Assay: switch fluorescence ratio, 500 uM ATP over buffer (Cy3 cluster intensity, sum of 5 cycles each) (fold (ratio)); higher = stronger signal-on switching upon ATP binding; sequences stand for … in TCGTCGGCAGCGTCAGATGTGTATAAGAGACAGTTTTTTTTTTTTTTTTTTTTTTTTT…TC
Details: aptamer strand: ATP DNA aptamer (quencher-CACCTGGGGGAGTATTGCGGAGGAAGG + anchor), 100 nM annealed; ATP concentration: 500 uM
Method in brief: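 Clusters carrying Cy3-labelled switching strands on a modified Illumina MiSeq flow-cell were annealed to 100 nM quencher-labelled ATP aptamer and imaged in selection buffer. They were imaged again after 15 min with 500 uM ATP at 22 °C, over five buffer/ATP cycles with NaOH stripping and re-annealing in between. For each cluster, the fluorescence ratio is the summed Cy3 intensity of the target cycles divided by that of the buffer cycles, averaged per switch-domain sequence. Clusters outside 100-1000 RFU were left out.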
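Further: ATP exposure 15 min at 22 °C before imaging.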

Sequence	switch fluorescence ratio
CTGGGTTTAT	1 ± 0.042
ATAGAAGGTG	1.43 ± 0.025
GGGAATGGGC	0.991 ± 0.066
TCGAAGTATC	1.12 ± 0.058
TTACGGGGGA	1.03 ± 0.072
ACGCCTGGTC	1.01 ± 0.059
ATGAGCGCAC	1.06 ± 0.024
TGGTGAGTTT	0.984 ± 0.019
GTGTTAAGTA	1.0306 ± 0.00088
TGCTGGATT	0.983 ± 0.025
GATTGCAGTG	0.9786 ± 0.002
GGTGGGATGT	0.981 ± 0.02
TTCAGACAGG	1.09 ± 0.02
TAAGTGTTGG	1 ± 0.018
AGTTACTTAG	1.07 ± 0.038
TTTGAATTTG	0.974 ± 0.023
AGTTTGGCAT	0.9958 ± 0.0071
ATTTTGTTTC	0.987 ± 0.032
TGTGTGAATG	1.03 ± 0.037
TCTCGCGGGA	0.97 ± 0.023
AGGCGGCGG	0.975 ± 0.022
GGGTGTACCT	1.039 ± 0.0043
GACACAAAAG	1.069 ± 0.0023
CGTGTGTTGC	1 ± 0.024
TATATGGGGT	1 ± 0.042

Sequence	switch fluorescence ratio
CAAGGGTATT	1.01 ± 0.017
TAGTGTCGGA	0.9914 ± 0.0035
AGATTGGAGA	1 ± 0.039
GGGCTGGATG	0.9932 ± 0.0047
GGTTTATGGT	0.967 ± 0.019
TGTTTTGAGT	1.01 ± 0.013
TGACCCGTAC	2.64 ± 1.7
AAAAAACTTT	1.05 ± 0.027
ACATTAATTC	0.99573 ± 0.00079
CGCATTTAGG	1.08 ± 0.027
CGTTGTGGCA	1 ± 0.028
TTTGGGGGAA	0.994 ± 0.046
CAGATAAAAA	1.03 ± 0.02
AACGTTAGCG	1.002 ± 0.0045
TGGGGGTTAA	0.981 ± 0.025
TTAAGTTGAT	0.988 ± 0.033
CGGGTTTTTG	0.994 ± 0.03
TCAAACAGTG	1.02 ± 0.039
CAGCTCTGGG	1 ± 0.022
GGTACTCATC	1.02 ± 0.052
GTGCGGTGGC	1.04 ± 0.038
TCTGGATTGT	0.97294 ± 3.9e-05
TTCGAGTCGT	1.006 ± 0.0034
ATTATTGGCA	0.999 ± 0.0024
TTTGAAGAAC	1.01 ± 0.056

Sequence	switch fluorescence ratio
AACCAATCGT	1.03 ± 0.041
TAATAGAATT	1 ± 0.014
CATTAGTGGG	0.988 ± 0.011
CGGCCGGGGT	1.035 ± 0.0058
TTAAGGCTAT	1.009 ± 0.0065
TTTTAAGGAA	1.04 ± 0.071
GGGGTAAAAC	1.02 ± 0.023
GGTTTCGGTT	1.5 ± 0.86
ACTTACGGCG	1.168 ± 0.0051
TGGTTTTGGG	0.992 ± 0.021
GGGAAGTCTG	0.955 ± 0.024
TACCTAAACG	1.08 ± 0.033
ATTGCGGGGA	0.9848 ± 0.0072
AGGTTTGGCT	1.01 ± 0.028
AAGGCGGGAG	0.96 ± 0.032
GGTAGCGAAG	0.97 ± 0.026
TACTCGTTGA	1.04 ± 0.021
TCCAGGTAGT	1.594 ± 0.012
CTACATCTTA	1.02 ± 0.018
TCTGGGTATG	0.988 ± 0.016
ACATTCAGTA	0.991 ± 0.014
TGGTTGTTAT	1.008 ± 0.0058
ATATGAGGGG	0.965 ± 0.027
ATTAGCGAGA	1.028 ± 0.0035
CCATTCTTGT	1.04 ± 0.022

Sequence	switch fluorescence ratio
TTCTAATTTG	0.968 ± 0.058
AAGCTAATTC	1.186 ± 0.0069
TTATGAGGCT	1.01 ± 0.013
GTCCTTGATA	1.01 ± 0.024
TCAGGGGGGA	1 ± 0.04
AAAAACGGTG	1.05 ± 0.084
GCCTTCCCGG	1.9 ± 0.08
CGGCGGGGAA	0.9757 ± 0.00091
AAAAGGCATA	1.03 ± 0.046
TGGATTAAGT	1.02 ± 0.042
TTTGGACATC	1.02 ± 0.027
ACTTTGGGTT	1.01 ± 0.023
GGTTGGAATA	0.965 ± 0.044
TGAGGGTCGG	0.972 ± 0.041
TTTTGTTGCG	1.03 ± 0.043
TGGAATTAAC	1.02 ± 0.042
CGGATGCATG	1.02 ± 0.046
TAATACGTTT	0.986 ± 0.032
AAGGGGTCCA	0.991 ± 0.029
CGATAATGTG	0.9727 ± 0.0063
TTATAATGGC	1.02 ± 0.08
GGGGGGCCCT	0.996 ± 0.028
CACGTGATTG	1.02 ± 0.02
CTAGGTGATC	1.07 ± 0.044
GCATGGTTAA	1.019 ± 0.0023

Sequence	switch fluorescence ratio
TCAGGATTAG	1.02 ± 0.02
CTGTGGTTTA	1.03 ± 0.021
CGGATCTTTA	1.01 ± 0.037
TTATTAATT	0.997 ± 0.028
GATAGGTG	1.21 ± 0.1
TAGGTGTAGG	1.01 ± 0.028
CCAGGGCGTG	1.02 ± 0.069
GTATGTCGGT	0.997 ± 0.051
TTGCGTTTCC	1.19 ± 0.23
TTGATGCAA	1.07 ± 0.028
CGCTTTTGCT	0.969 ± 0.029
AGAATCGACG	0.993 ± 0.056
TTTTTGATAC	1.063 ± 0.0034
AAGGGAATAG	1.02 ± 0.014
CGGGGGATAG	1.06 ± 0.074
GCCTTCCGTT	1.39 ± 0.49
ATGCACTCGA	1.03 ± 0.012
CGGGGGTGGG	1.01 ± 0.047
AATAGTGACG	1.14 ± 0.28
GGGCGATGGG	1.02 ± 0.084
CCGTCGAATA	2.2 ± 0.027
AAGCTGAGAT	1.01 ± 0.024
AACGACGATC	1.11 ± 0.046
TAATTTGAGT	1 ± 0.014
AAACGCTGCT	1.02 ± 0.062

Sequence	switch fluorescence ratio
TTAGTTTGCT	1.01 ± 0.019
CGGACGACGG	1.01 ± 0.027
TTTATTTGAT	0.9955 ± 0.0012
GCAGGAGATT	1.01 ± 0.032
GATCGAGGGG	1.05 ± 0.1
GGGGGTATAG	1.02 ± 0.022
TAAAGGGCGA	0.999 ± 0.027
GAAATCGTTT	0.9949 ± 0.0082
GGTGGGAAGG	0.993 ± 0.02
GGTTCCAAAA	1.02 ± 0.029
CGGAGGTATA	1.14 ± 0.017
AGGCGGTGTG	0.973 ± 0.036
CGGGTTGGGT	1.01 ± 0.049
GAGGTTATTA	1 ± 0.066
ATTTTGCTCG	0.999 ± 0.021
GCAGCGGGGG	1.01 ± 0.027
TATAGACTTT	1.02 ± 0.019
CTACTTTTTT	1.01 ± 0.023
GCTTTAAGTA	0.992 ± 0.044
ACGTTTGAGG	0.988 ± 0.014
AAAGCTAGGA	0.979 ± 0.036
GCGTGCGGGG	1.028 ± 0.0098
TTTACCCTCC	1.21 ± 0.13
CGAGTAGCGG	1.01 ± 0.036
CTTGTTTGGC	1.02 ± 0.045

Sequence	switch fluorescence ratio
TGGGTGAATT	0.98 ± 0.017
TATGGTGCCT	1.02 ± 0.082
TTTTTTCGCT	1.02 ± 0.047
GAAATAGGGC	0.997 ± 0.0058
GGTTGGTCTT	0.974 ± 0.041
CAGCCAAATA	1.1 ± 0.029
AATTTAATTT	1.015 ± 0.006
TGTCTCAGAT	0.97948 ± 0.00033
GGCCGGTTGC	1.03 ± 0.071
AATCAAGGCG	1.03 ± 0.1
AAGACGTCAC	1.91 ± 0.14
CCTAAGTGTT	1.06 ± 0.069
GCGCCTAGGG	0.999 ± 0.018
TGGGATTAAG	0.987 ± 0.034
CGTTGGGGTG	1.03 ± 0.063
TAAAAGAGAT	1.04 ± 0.026
AGCATGAGAT	1.03 ± 0.039
GCACGAATGC	1.06 ± 0.025
TTTGCTGGTC	1.05 ± 0.025
ATAATGGGCG	0.995 ± 0.058
GGGTAGACTT	0.996 ± 0.013
TTTAATTGCC	0.993 ± 0.081
AAAGATCGTG	0.974 ± 0.01
CAAGGTTTTT	1.01 ± 0.021
CGTGGCCGTT	0.978 ± 0.095

Sequence	switch fluorescence ratio
CACAGGTGCG	2.23 ± 0.08
TTGTAGGCGA	1.09 ± 0.0026
TTAAGTAGGA	1 ± 0.017
AAAGAGTTCA	1 ± 0.035
AAAGCGGTAT	1.038 ± 0.007
CCAACTTGGA	0.9849 ± 0.003
AATTAATTCC	1.07 ± 0.026
CGGTTACCTG	0.9708 ± 0.0074
CAATTCAGTT	0.991 ± 0.024
TTGAAGTTCG	0.986 ± 0.022
GAGAGTTGTG	0.988 ± 0.034
GGGTTTGGTT	0.976 ± 0.041
TACCAGAGCA	1.08 ± 0.022
AGGCCGATGG	0.983 ± 0.021
CCACAGGGTG	4.53 ± 1.5
AATTTGGGAA	0.999 ± 0.017
GTGTGGGGCT	1 ± 0.019
GTTAAGGGGT	1.007 ± 0.0026
GCTGGGAATA	0.9499 ± 0.0028
TGGGATGTTG	1 ± 0.052
TTGATTTGCA	0.99989 ± 0.00088
AGCGCCAACA	1.02 ± 0.017
CAGAGTAATA	1.45 ± 0.1
TCGGAGGGAG	1.02 ± 0.056
AGTATCACGG	1.011 ± 0.0068
